How the values were obtained:
human integrin α10 = molecular target: T1, human integrin α10 (human, UniProt O75578 23-1167); experiment: FACS on human integrin α10 introduced CHO cells
T1 construct: whole, on cells
T1 sequence (looked up): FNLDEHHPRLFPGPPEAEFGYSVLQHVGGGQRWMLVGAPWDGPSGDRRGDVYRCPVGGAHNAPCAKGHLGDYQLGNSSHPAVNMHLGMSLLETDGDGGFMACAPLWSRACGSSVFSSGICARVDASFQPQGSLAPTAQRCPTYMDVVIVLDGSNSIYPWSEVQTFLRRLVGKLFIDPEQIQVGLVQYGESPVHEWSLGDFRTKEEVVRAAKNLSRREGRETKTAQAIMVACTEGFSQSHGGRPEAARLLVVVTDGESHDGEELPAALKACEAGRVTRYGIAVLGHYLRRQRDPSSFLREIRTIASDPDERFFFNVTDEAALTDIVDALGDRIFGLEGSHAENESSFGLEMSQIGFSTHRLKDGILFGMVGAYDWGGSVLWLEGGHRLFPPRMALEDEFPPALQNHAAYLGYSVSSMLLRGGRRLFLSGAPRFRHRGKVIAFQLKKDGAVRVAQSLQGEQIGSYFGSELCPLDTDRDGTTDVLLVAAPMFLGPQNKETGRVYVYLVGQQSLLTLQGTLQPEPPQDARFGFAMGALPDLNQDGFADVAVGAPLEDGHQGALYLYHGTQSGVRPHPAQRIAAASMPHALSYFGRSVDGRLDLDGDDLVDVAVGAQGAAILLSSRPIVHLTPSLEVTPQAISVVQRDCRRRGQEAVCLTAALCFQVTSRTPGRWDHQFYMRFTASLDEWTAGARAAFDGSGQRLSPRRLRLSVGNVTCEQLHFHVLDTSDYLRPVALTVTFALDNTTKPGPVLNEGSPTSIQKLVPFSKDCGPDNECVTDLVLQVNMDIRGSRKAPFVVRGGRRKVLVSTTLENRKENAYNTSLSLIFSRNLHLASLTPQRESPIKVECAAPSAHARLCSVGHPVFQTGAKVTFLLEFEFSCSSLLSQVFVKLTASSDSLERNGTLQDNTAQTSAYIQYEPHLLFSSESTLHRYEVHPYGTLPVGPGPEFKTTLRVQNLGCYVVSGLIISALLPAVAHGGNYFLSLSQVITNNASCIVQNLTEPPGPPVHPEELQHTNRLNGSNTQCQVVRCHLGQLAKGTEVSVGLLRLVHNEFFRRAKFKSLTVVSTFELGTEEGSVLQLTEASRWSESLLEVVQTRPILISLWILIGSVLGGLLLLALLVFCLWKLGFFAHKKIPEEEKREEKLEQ
Experimental: (§1) Reactivity (specificity) with respect to α11 in the antibody which has been converted into IgG was analyzed based on presence or absence of reactivity with respect to other collagen binding integrins α1, α2, and α10. First, reactivity of the antibody with respect to the CHO cell and the human integrin α11 introduced CHO cell was analyzed by FACS. Subsequently, reactivity of the antibody with respect to a human colorectal carcinoma cell line (SW480 cell: cell line expressing endogenous α1 and α2) and a human integrin α10 introduced CHO cell was analyzed by FACS. The reaction conditions of FACS using the IgG antibody are as follows. That is, the antibody as a primary antibody was added to a cell at a concentration of 5 μg/ml to react with the cell on ice for 25 minutes. After washing, PE labeled anti-mouse IgG antibody as a secondary antibody was added to the cell at a concentration of 2 μg/ml to react with the cell on ice for 15 minutes. The subsequent FACS processes were carried out under the same conditions.

[1] = molecular target: T2, integrin α2 (endogenous on human colorectal carcinoma SW480 cells) (human, UniProt P17301 30-1181); experiment: FACS on SW480 cells expressing endogenous α1 and α2
T2 construct: whole, on cells
T2 sequence (looked up): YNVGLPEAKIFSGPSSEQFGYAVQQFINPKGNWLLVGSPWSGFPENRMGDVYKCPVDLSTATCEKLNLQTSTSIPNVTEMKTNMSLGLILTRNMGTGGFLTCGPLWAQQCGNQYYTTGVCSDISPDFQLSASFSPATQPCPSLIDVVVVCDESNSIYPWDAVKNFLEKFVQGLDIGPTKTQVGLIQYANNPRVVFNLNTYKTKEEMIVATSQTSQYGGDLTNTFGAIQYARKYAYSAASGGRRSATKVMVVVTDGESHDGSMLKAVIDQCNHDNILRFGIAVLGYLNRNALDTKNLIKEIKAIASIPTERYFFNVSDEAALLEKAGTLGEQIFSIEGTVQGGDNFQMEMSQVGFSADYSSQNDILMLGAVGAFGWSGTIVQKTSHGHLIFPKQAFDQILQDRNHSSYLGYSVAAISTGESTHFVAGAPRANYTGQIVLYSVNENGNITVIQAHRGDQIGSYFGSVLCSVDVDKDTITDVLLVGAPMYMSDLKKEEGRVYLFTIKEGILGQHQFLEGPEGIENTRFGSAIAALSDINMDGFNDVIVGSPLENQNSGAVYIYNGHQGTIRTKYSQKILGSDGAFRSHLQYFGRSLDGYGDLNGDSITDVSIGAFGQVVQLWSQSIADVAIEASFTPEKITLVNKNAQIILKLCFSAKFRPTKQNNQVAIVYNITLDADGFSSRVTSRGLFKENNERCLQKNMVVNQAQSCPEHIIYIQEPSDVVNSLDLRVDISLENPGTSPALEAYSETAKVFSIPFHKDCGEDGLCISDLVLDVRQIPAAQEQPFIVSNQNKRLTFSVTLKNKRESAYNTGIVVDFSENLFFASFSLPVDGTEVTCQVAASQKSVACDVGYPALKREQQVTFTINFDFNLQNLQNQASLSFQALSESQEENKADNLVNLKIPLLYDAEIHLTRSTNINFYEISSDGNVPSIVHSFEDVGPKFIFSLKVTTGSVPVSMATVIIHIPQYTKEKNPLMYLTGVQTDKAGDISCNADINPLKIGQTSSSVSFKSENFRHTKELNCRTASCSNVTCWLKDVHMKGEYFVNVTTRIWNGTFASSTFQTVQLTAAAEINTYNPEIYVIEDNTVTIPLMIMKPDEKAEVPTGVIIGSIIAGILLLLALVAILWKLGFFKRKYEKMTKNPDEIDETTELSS
Experimental: as §1

[2] = molecular target: T3, integrin α1 (endogenous on human colorectal carcinoma SW480 cells) (human, UniProt P56199 29-1179); experiment: as above
T3 construct: whole, on cells
T3 sequence (looked up): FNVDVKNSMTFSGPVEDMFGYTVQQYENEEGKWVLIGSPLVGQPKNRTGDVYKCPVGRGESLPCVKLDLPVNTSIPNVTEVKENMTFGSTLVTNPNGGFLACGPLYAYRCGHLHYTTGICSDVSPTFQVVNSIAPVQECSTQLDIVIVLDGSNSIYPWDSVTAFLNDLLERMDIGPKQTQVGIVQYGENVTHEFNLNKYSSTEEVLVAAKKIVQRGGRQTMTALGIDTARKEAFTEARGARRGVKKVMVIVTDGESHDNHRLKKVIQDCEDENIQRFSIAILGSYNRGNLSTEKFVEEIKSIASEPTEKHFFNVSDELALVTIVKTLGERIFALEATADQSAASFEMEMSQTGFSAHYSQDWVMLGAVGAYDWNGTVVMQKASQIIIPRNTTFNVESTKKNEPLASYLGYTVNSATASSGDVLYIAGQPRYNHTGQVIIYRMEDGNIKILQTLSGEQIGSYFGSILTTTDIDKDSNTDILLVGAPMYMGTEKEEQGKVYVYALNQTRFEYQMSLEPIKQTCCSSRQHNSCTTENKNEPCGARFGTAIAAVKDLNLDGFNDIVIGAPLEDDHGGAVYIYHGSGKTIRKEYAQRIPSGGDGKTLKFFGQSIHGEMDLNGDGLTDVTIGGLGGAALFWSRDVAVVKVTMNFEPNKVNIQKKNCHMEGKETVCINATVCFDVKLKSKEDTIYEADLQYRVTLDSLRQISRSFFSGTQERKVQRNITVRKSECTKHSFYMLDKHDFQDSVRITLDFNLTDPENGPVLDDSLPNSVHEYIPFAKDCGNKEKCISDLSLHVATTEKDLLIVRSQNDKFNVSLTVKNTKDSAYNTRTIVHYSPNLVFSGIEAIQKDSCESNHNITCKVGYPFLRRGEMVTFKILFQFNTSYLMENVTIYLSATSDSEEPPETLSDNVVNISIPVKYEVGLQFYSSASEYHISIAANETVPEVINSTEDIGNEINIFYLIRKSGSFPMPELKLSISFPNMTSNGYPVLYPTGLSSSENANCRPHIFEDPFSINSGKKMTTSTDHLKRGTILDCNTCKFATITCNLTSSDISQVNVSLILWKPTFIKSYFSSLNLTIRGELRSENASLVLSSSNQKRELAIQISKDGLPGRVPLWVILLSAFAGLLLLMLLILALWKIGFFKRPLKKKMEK
Experimental: as §1

Measured: binding result

B1: wild-type #33 IgG (anti-integrin α11 monoclonal antibody, chicken-mouse chimeric IgG1) (antibody, V domains shown)
VH: AVTLDESGGGLQTPGGALSLVCKGSGFTFSSYGMQWVRQAPGRGLEWVAGIDDDGSFTLYGAAVDGRATISRDNGQTTVRLQLSDLRAEDTATYFCAKGGYGYCWYGDAACIDAWGHGTEVIVSS
VL: AVTQPSSVSANPGETVKITCSGGSDSWYGWYQQKSPGSAPVTVIYSNNQRPSNIPSRFSGSTSGSTSTLTITGVQADDEAVYFCGSRDSSYDGIFGAGTTLTVLK
notes: Chicken VH linked to a mouse IgG1 constant region and chicken VL linked to a mouse Igκ region; His-tagged at the C-terminal; also called the antibody
no binding (tested: 5 µg/ml): human integrin α10 | [1] | [2]
